Experimental data as given in patent US20050054563A1 (Genentech, published 2005).

Key:
[1] = target: T1, mouse WISP-1-IgG (chimeric recombinant mouse WISP-1 bearing a human immunoglobulin Fc fragment tag) (mouse); test: competition solid phase assay: 0.25 nM WISP-1-IgG on coated human skin fibroblast conditioned media, soluble biglycan varied
T1 construct: also called mWISP-1-IgG; WISP-1-Fc
Experimental: (§1) Decorin and biglycan were coated to microtiter wells overnight. Non-specific binding sites were saturated and 0.25 nM of mWISP-1-IgG was incubated for 2 hours. The wells were washed and incubated with horseradish peroxidase conjugated anti-human IgG Fc′ (2 μg/ml) for 1 hour. After 6 washes with PBS containing 0.05% Tween-20, a signal was developed by the incubation of a chromogenic substrate. The color development was stopped by the addition of 1 M phosphoric acid and the O.D. at 450 nm was measured.
(§2) Fifty microliters of human skin fibroblast conditioned media were coated in wells of microtiter plates. Non-specific binding sites were saturated and 0.25 nM of WISP-1-IgG was incubated in the presence of various concentrations of decorin (filled circles) or biglycan (empty circles) (FIG. 5B) for 2 hours. The binding of mWISP-1-IgG was evaluated as described above.

[2] = target: T1, mouse WISP-1-IgG (chimeric recombinant …); test: competition solid phase assay: 0.25 nM WISP-1-IgG on coated human skin fibroblast conditioned media, soluble decorin varied
Experimental: as §1, §2

T1 sequence (chain, as listed by the source mutant limits assumed): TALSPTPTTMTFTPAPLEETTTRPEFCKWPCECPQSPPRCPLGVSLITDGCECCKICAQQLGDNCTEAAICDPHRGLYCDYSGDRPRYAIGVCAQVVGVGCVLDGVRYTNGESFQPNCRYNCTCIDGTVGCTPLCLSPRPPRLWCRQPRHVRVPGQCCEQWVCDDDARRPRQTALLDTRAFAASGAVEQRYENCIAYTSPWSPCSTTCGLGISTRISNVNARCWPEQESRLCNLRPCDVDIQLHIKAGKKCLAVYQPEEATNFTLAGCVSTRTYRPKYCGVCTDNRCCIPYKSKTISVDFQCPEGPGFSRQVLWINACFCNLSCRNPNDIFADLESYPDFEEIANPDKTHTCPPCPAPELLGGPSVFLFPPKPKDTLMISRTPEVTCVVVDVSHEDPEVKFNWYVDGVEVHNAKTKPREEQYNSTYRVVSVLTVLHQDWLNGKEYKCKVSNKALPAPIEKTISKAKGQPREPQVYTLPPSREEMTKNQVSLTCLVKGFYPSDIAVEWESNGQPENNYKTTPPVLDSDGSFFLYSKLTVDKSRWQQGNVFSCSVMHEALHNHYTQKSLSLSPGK

| IC50 [1] [µg/mL] | IC50 [2] [µg/mL] | Binder |
| --- | --- | --- |
| 105 |  | biglycan from bovine articular cartilage (Sigma) (other, UniProt P21809 38-369, looked up, proteoglycan; glycosaminoglycan chains on the core protein (sites not stated for this preparation)) DEEASGAETTSGIPDLDSLPPTYSAMCPFGCHCHLRVVQCSDLGLKAVPKEISPDTTLLDLQNNDISELRKDDFKGLQHLYALVLVNNKISKIHEKAFSPLRKLQKLYISKNHLVEIPPNLPSSLVELRIHDNRIRKVPKGVFSGLRNMNCIEMGGNPLENSGFEPGAFDGLKLNYLRISEAKLTGIPKDLPETLNELHLDHNKIQAIELEDLLRYSKLYRLGLGHNQIRMIENGSLSFLPTLRELHLDNNKLSRVPAGLPDLKLLQVVYLHTNNITKVGVNDFCPVGFGVKRAYYNGISLFNNPVPYWEVQPATFRCVTDRLAIQFGNYKK |
|  | 70 | decorin from bovine articular cartilage (Sigma) (other, UniProt P21793 31-360, looked up, proteoglycan; dermatan sulfate glycosaminoglycan chain on the core protein (site not stated for this preparation)) DEASGIGPEEHFPEVPEIEPMGPVCPFRCQCHLRVVQCSDLGLEKVPKDLPPDTALLDLQNNKITEIKDGDFKNLKNLHTLILINNKISKISPGAFAPLVKLERLYLSKNQLKELPEKMPKTLQELRVHENEITKVRKSVFNGLNQMIVVELGTNPLKSSGIENGAFQGMKKLSYIRIADTNITTIPQGLPPSLTELHLDGNKITKVDAASLKGLNNLAKLGLSFNSISAVDNGSLANTPHLRELHLNNNKLVKVPGGLADHKYIQVVYLHNNNISAIGSNDFCPPGYNTKKASYSGVSLFSNPVQYWEIQPSTFRCVYVRAAVQLGNYK |
